Experimental data from patent US20240190987A1, “Engineered EpCam Binding Antibodies” (TigaTX, priority 2021, published 2024).

Key:
[1] = test system: LS2A R3M1 (Ab0786); assay: BLI binding of LS2B variants to LS2A R3M1 (Ab0786) with indinavir; details: for binding to LS2A clones (FIG. 17): biotinylated Ab0785 (R2M34) or Ab0786 (R3M1) captured, indinavir present
Experimental: Binding kinetics were measured by biolayer interferometry (BLI). Biotinylated-Ab0785 (LS2A R2M34 Fab) or biotinylated-Ab0786 (LS2A R3M1 Fab) was captured by streptavidin biosensors and binding to Ab1071 (LS2B R5M2 Fab), Ab1072 (LS2B R7M1 Fab), and Ab1073 (LS2B R7M2 Fab) was measured in the presence of […].
In R6 of engineering, alanine scanning of clone R4M16 were performed to find improved binding to LS2A R3M2 (Ab0787) and LS2A R3M1 (Ab0786). Variants were screened for binding to LS2A (Ab0223) and LS2A R3M2 (Ab0787) with a single-point kinetic screen.
In R7, combination mutants from R6 were designed to generate further affinity variants. Variants were screened for binding to LS2A Ab0787 and Ab0786 with a single-point kinetic screen. Five-point kinetics was measured for a subset of molecules.
Bio-layer interferometry (BLI) data were measured using an Octet RED384 (ForteBio) instrument. Antigens of interest were immobilized on an AHC biosensor and loaded until a 0.4-0.6-nm signal was achieved. Purified antibodies were used as the analyte premixed with 10 μM Indinavir or 0.05% DMSO vehicle. PBSTB (PBS, pH 7.4, 0.05% Tween-20, 0.2% BSA) was used for all buffers for BLI. Data were analyzed using ForteBio Octet analysis software and kinetic parameters were determined using a 1:1 monovalent binding model.

[2] = Differential scanning fluorimetry (DSF) melting temperature; type: physicochemical
Experimental: DSF was performed on a LC480 Lightcycler Instrument II (Roche). Purified recombinant protein was diluted to 5 μM in DSF buffer (PBS, pH 7.4, Sypro Orange 5×) with small molecule (10 μM VTX) or vehicle (0.05% DMSO) and then heated with a temperature gradient (0.01° C./s) from 25 to 95° C. Data were continuously acquired at ˜465 nm (excitation) and ˜580 nm (emission). Data was analyzed to generate first derivative curves in which the curve maximum was reported as the melting temperature of the protein.

B1: Ab1071: LS2B R5M2 Fab (antibody, V domains shown)
VH: EVQLVESGGGLVQPGGSLRLSCAASGFDFSSYSIHWVRQAPGKGLEWVASISPYYGSTYYADSVKGRFTISADTSKNTAYLQMNSLRAEDTAVYYCARYYEWYKYDLYAGSLGFDYWGQGTLVTVSS
VL: DIQMTQSPSSLSASVGDRVTITCRASQSVSSAVAWYQQKPGKAPKLLIYSASSLYSGVPSRFSGSRSGTDFTLTISSLQPEDFATYYCQQGGYSLITFGQGTKVEIK
[1]
  binding to LS2A clones (FIG. 17): weaker binding to LS2A R3M1 compared to LS2A R2M34

B2: Ab1044: LS2B; HC: S50A on Ab0902 (antibody, V domains shown)
VH: EVQLVESGGGLVQPGGSLRLSCAASGFDFSSYSIHWVRQAPGKGLEWVAAISPYYGSTYYADSVKGRFTISADTSKNTAYLQMNSLRAEDTAVYYCARYYEWYKYDLYAGSLGFDYWGQGTLVTVSS
VL: DIQMTQSPSSLSASVGDRVTITCRASQSVSSAVAWYQQKPGKAPKLLIYSASSLYSGVPSRFSGSRSGTDFTLTISSLQPEDFATYYCQQGGYSLITFGQGTKVEIK
[1]; five-point kinetics, values equal Table 15 column LS2A Ab0786
  Kd: 8.6 nM
[2]; Table 15
  TM (° C.): 78.3 °C

B3: Ab1072: LS2B R7M1 Fab (antibody, V domains shown)
VH: EVQLVESGGGLVQPGGSLRLSCAASGFDFSSYSIHWVRQAPGKGLEWVAAISPYYGSTYYADSVKGRFTISADTSKNTAYLQMNSLRAEDTAVYYCARYYEWYKYDLYAGSLGFDYWGQGTLVTVSS
VL: DIQMTQSPSSLSASVGDRVTITCRASQSVSSAVAWYQQKPGKAPKLLIYSASSLYSGVPSRFSGSRSGTDFTLTISSLQPEDFATYYCQQGGYSLITFGQGTKVEIK
[1]
  binding to LS2A clones (FIG. 17): improved affinities

B4: Ab1069: anti-EpCAM T-LITE (CT) antibody, FIGS. 8A-8C, 9C (protein)
light: DIQMTQSPSSLSASVGDRVTITCSASSSVSSGNFHWYQQKPGKAPKLLIYRTSNLASGVPSRFSGSGSGTDYTLTISSLQPEDFATYYCQQWSGYPYTFGQGTKVEIKRTVAAPSVFIFPPSDEQLKSGTASVVCLLNNFYPREAKVQWKVDNALQSGNSQESVTEQDSKDSTYSLSSTLTLSKADYEKHKVYACEVTHQGLSSPVTKSFNRGEC
heavy 1: QVQLVQSGAEVKKPGASVKVSCKASGYTFTSYWMHWVRQHPGQGLEWMGMIHPNSGGTNYAQKFQGRVTMTRDTSTSTVYMELSSLRSEDTAVYYCAMGDYVSRDYWGQGTLVTVSSGGGGSGGGGSGGGGSEIVLTQSPGTLSLSPGERATLSCRASSSVSSSYLHWYQQKPGQAPRLLIYSTSSRATGIPDRFSGSGSGTDFTLTISRLEPEDFAVYYCQQYSGYQFTFGQGTKLEIKGGGGSDKTHTCPPCPAPEAAGGPSVFLFPPKPKDTLMISRTPEVTCVVVDVSHEDPEVKFNWYVDGVEVHNAKTKPREEQYNSTYRVVSVLTVLHQDWLNGKEYKCKVSNKALGAPIEKTISKAKGQPREPMVFDLPPSREEMTKNQVSLWCMVKGFYPSDIAVEWESNGQPENNYKTTPPVLDSDGSFFLYSKLTVDKSRWQQGNVFSCSVMHEALHNHYTQKSLSLSPGKHHHHHH
heavy 2: EVQLVESGGGLVQPGGSLRLSCAASGFTFSNYWMNWVRQAPGKGLEWVAQIRVKSENFATHYADSVKGRFTISRDDSKSTVYLQMNSLRAEDTAVYYCTLYDGFSWGQGTLVTVSSASTKGPSVFPLAPSSKSTSGGTAALGCLVKDYFPEPVTVSWNSGALTSGVHTFPAVLQSSGLYSLSSVVTVPSSSLGTQTYICNVNHKPSNTKVDKKVEPKSCDKTHTCPPCPAPEAAGGPSVFLFPPKPKDTLMISRTPEVTCVVVDVSHEDPEVKFNWYVDGVEVHNAKTKPREEQYNSTYRVVSVLTVLHQDWLNGKEYKCKVSNKALGAPIEKTISKAKGQPREPQVYTLPPIRELMTSNQVSLSCAVKGFYPSDIAVEWESNGQPENNYKTTPPVLDSDGSFFLVSKLTVDKSRWQQGNVFSCSVMHEALHNHYTQKSLSLSPGK
modifications: REGION 1..215: note = Ab1069 Hole LC; REGION 1..478: note = Ab1069 Knob KC; REGION 1..446: note = Ab1069 Hole HC
[2]; thermostability by DSF, Table 27
  TM (° C.): 72.0 °C
